From US20220017589A1 (BEIJING QL BIOPHARMACEUTICAL, published 2022)

T1: human GFRAL (human, UniProt Q6UXV0 19-394)
T1 sequence (looked up): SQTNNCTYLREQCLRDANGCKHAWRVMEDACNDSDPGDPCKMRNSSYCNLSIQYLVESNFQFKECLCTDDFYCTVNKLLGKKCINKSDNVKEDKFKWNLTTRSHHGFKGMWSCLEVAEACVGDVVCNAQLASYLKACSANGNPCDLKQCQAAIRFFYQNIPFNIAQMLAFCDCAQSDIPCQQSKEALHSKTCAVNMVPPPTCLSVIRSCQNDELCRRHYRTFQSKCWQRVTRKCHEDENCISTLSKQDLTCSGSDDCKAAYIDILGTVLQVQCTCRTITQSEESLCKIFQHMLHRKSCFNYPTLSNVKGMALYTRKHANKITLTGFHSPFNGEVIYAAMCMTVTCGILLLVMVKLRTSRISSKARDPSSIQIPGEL


Columns and labels:
human GLP-1 receptor = human GLP-1 receptor (human, UniProt P43220 24-463); test: cell-based or functional assay
human GFRAL = molecular target: T1, human GFRAL; test: cell-based or functional assay

| Binder | GLP-1 activity (EC50, pM) (human GLP-1 receptor) | GDF15 activity (EC50, pM) (human GFRAL) |
| --- | --- | --- |
| MLC021 (ligand) HGEGTFTSDVSSYLEEQAAKEFIAWLVRGGGGQEPGAQPGQEPGAQPGQEPGAQPGQEPGAQPGQEPGAQPGQEPGAQPGAQPGAQPGAQPGAQPGAQPGAQPGAQPGAQPARQGDHCPLGPGRCCRLHTVRASLEDLGWADWVLSPREVQVTMCIGACPSQFRAANLHAQIKTSLHRLKPDTVPAPCCVPASYNPMVLIQKTDTGVSLQTYDDLLAKDCHCI | 5.7 pM | 67.3 pM |
| MLC013 (ligand, Moiety A (HOOC-(CH2)16-CO-gGlu-2XADO) on 1K of Linker (32K of fusion polypeptide)) HGEGTFTSDVSSYLEEQAAREFIAWLVRGGGKQEPGAQPGQEPGAQPGQEPGAQPGQEPGAQPGQEPGAQPGQEPGAQPGAQPGAQPGAQPGAQPGAQPGAQPGAQPGAQPARQGDHCPLGPGRCCRLHTVRASLEDLGWADWVLSPREVQVTMCIGACPSQFRAANLHAQIKTSLHRLRPDTVPAPCCVPASYNPMVLIQRTDTGVSLQTYDDLLARDCHCI | 6.9 pM | 48.8 pM |
| MLC019 (ligand) HGEGTFTSDVSSYLEEQAAKEFIAWLVRGGGGQEPGAQPGQEPGAQPGQEPGAQPGQEPGAQPGQEPGAQPGQEPGAQPGAQPGAQPGAQPGAQPGAQPGAQPGAQPGAQPARQGDHCPLGPGRCCRLHTVRASLEDLGWADWVLSPREVQVTMCIGACPSQFRAANLHAQIKTSLHRLRPDTVPAPCCVPASYNPMVLIQRTDTGVSLQTYDDLLARDCHCI | 8 pM | 80.5 pM |
| MLC022 (ligand) HGEGTFTSDVSSYLEEQAAKEFIAWLVRGGGGQEPGQEPGQEPGQEPGQEPGQEPARQGDHCPLGPGRCCRLHTVRASLEDLGWADWVLSPREVQVTMCIGACPSQFRAANLHAQIKTSLHRLKPDTVPAPCCVPASYNPMVLIQKTDTGVSLQTYDDLLAKDCHCI | 6.7 pM | 59.2 pM |
| MLC023 (ligand) HGEGTFTSDVSSYLEEQAAKEFIAWLVRGGGGQEPGQEPGQEPARQGDHCPLGPGRCCRLHTVRASLEDLGWADWVLSPREVQVTMCIGACPSQFRAANLHAQIKTSLHRLKPDTVPAPCCVPASYNPMVLIQKTDTGVSLQTYDDLLAKDCHCI | 4 pM | 62.8 pM |
| MLC006 (ligand, Moiety A (HOOC-(CH2)16-CO-gGlu-2XADO) on 36K of GLP-1 (30K of fusion polypeptide)) HGEGTFTSDVSSYLEEQAAREFIAWLVRGKGGQEPGQEPGQEPGQEPGQEPGQEPGQEPGQEPGAQPGAQPARQGDHCPLGPGRCCRLHTVRASLEDLGWADWVLSPREVQVTMCIGACPSQFRAANLHAQIKTSLHRLRPDTVPAPCCVPASYNPMVLIQRTDTGVSLQTYDDLLARDCHCI | 28.7 pM | 11.6 pM |
| MLC020 (ligand) HGEGTFTSDVSSYLEEQAAKEFIAWLVRGGGGQEPGQEPGQEPGQEPGQEPGQEPGQEPGQEPGAQPGAQPARQGDHCPLGPGRCCRLHTVRASLEDLGWADWVLSPREVQVTMCIGACPSQFRAANLHAQIKTSLHRLKPDTVPAPCCVPASYNPMVLIQKTDTGVSLQTYDDLLAKDCHCI |  | 55.9 pM |
| MLC003 (ligand) HGEGTFTSDVSSYLEEQAAKEFIAWLVRGGGGQEPGQEPGQEPGQEPGQEPGQEPGQEPGQEPGAQPGAQPARQGDHCPLGPGRCCRLHTVRASLEDLGWADWVLSPREVQVTMCIGACPSQFRAANLHAQIKTSLHRLRPDTVPAPCCVPASYNPMVLIQRTDTGVSLQTYDDLLARDCHCI | 7.8 pM | 55 pM |
| MLC002 (ligand, Moiety A (HOOC-(CH2)16-CO-gGlu-2XADO) on 26K of GLP-1 (20K of fusion polypeptide)) HGEGTFTSDVSSYLEEQAAKEFIAWLVRGGGGQEPGQEPGQEPGQEPGQEPGQEPGQEPGQEPGAQPGAQPARQGDHCPLGPGRCCRLHTVRASLEDLGWADWVLSPREVQVTMCIGACPSQFRAANLHAQIKTSLHRLRPDTVPAPCCVPASYNPMVLIQRTDTGVSLQTYDDLLARDCHCI | 13.1 pM | 17.9 pM |
| MLC009 (ligand, Moiety A (HOOC-(CH2)16-CO-gGlu-2XADO) on 15K of Linker (46K of fusion polypeptide)) HGEGTFTSDVSSYLEEQAAREFIAWLVRGGGGQEPGQEPGQEPGQKPGQEPGQEPGQEPGQEPGAQPGAQPARQGDHCPLGPGRCCRLHTVRASLEDLGWADWVLSPREVQVTMCIGACPSQFRAANLHAQIKTSLHRLRPDTVPAPCCVPASYNPMVLIQRTDTGVSLQTYDDLLARDCHCI | 1.8 pM | 24.6 pM |
| MLC007 (ligand, Moiety A (HOOC-(CH2)16-CO-gGlu-2XADO) on 1K of Linker (32K of fusion polypeptide)) HGEGTFTSDVSSYLEEQAAREFIAWLVRGGGKQEPGQEPGQEPGQEPGQEPGQEPGQEPGQEPGAQPGAQPARQGDHCPLGPGRCCRLHTVRASLEDLGWADWVLSPREVQVTMCIGACPSQFRAANLHAQIKTSLHRLRPDTVPAPCCVPASYNPMVLIQRTDTGVSLQTYDDLLARDCHCI | 5.9 pM | 9.5 pM |
| MLC008 (ligand, Moiety A (HOOC-(CH2)16-CO-gGlu-2XADO) on 6K of Linker (37K of fusion polypeptide)) HGEGTFTSDVSSYLEEQAAREFIAWLVRGGGGQEPGKEPGQEPGQEPGQEPGQEPGQEPGQEPGAQPGAQPARQGDHCPLGPGRCCRLHTVRASLEDLGWADWVLSPREVQVTMCIGACPSQFRAANLHAQIKTSLHRLRPDTVPAPCCVPASYNPMVLIQRTDTGVSLQTYDDLLARDCHCI | 4.3 pM | 15.3 pM |
| MLC012 (ligand, Moiety A (HOOC-(CH2)16-CO-gGlu-2XADO) on 12K of Linker (43K of fusion polypeptide)) HGEGTFTSDVSSYLEEQAAREFIAWLVRGGGGQEPGQEPGQEKGQEPGQEPGQEPGQEPGQEPGQEPGQEPARQGDHCPLGPGRCCRLHTVRASLEDLGWADWVLSPREVQVTMCIGACPSQFRAANLHAQIKTSLHRLRPDTVPAPCCVPASYNPMVLIQRTDTGVSLQTYDDLLARDCHCI | 3.5 pM | 32.8 pM |
| MLC026 (ligand, Moiety A (HOOC-(CH2)16-CO-gGlu-2XADO) on 55K of Linker (86K of fusion polypeptide)) HGEGTFTSDVSSYLEEQAAREFIAWLVRGGGGAQPGAQPGAQPGAQPGAQPGAQPGAQPGAQPGAQPGAQPGQEPGQEPGQEPGQKPGQEPGQEPGQEPGQEPGAQPGAQPARQGDHCPLGPGRCCRLHTVRASLEDLGWADWVLSPREVQVTMCIGACPSQFRAANLHAQIKTSLHRLRPDTVPAPCCVPASYNPMVLIQRTDTGVSLQTYDDLLARDCHCI |  | 56.1 pM |

Continued, values first:

| GLP-1 activity (EC50, pM) (human GLP-1 receptor) | GDF15 activity (EC50, pM) (human GFRAL) | Binder |
| --- | --- | --- |
| 2.5 pM | 29 pM | MLC102 (ligand) HGEGTFTSDVSSYLEEQAAKEFIAWLVRGGGGQEPGAQPGQEPGAQPGQEPGAQPGQEPGAQPGQEPGAQPGQEPGAQPGAQPGAQPGAQPGAQPGAQPGAQPGAQPGAQPGAQPGAQPGAQPGAQPGAQPGAQPGAQPGAQPGAQPGAQPARQGDHCPLGPGRCCRLHTVRASLEDLGWADWVLSPREVQVTMCIGACPSQFRAANLHAQIKTSLHRLKPDTVPAPCCVPASYNPMVLIQKTDTGVSLQTYDDLLAKDCHCI |
| 3.1 pM | 29.9 pM | MLC100 (ligand) HGEGTFTSDVSSYLEEQAAKEFIAWLVRGGGGQEPARQGDHCPLGPGRCCRLHTVRASLEDLGWADWVLSPREVQVTMCIGACPSQFRAANLHAQIKTSLHRLKPDTVPAPCCVPASYNPMVLIQKTDTGVSLQTYDDLLAKDCHCI |
| 1.3 pM | > 5000 pM | MLC096 (ligand) HGEGTFTSDVSSYLEEQAAKEFIAWLVRGGGGQEPGAQPGQEPGAQPGQEPGAQPGQEPGAQPGQEPGAQPGQEPGAQPGAQPGAQPGAQPGAQPGAQPGAQPGAQPGAQPARQGDHCPLGPGRCCRLHTVRASLEDLGWADWVLSPREVQVTMCIGACPSQFRAANLHAQIKTSLHRLKPDTVPAPCCVPASYNPMRLIQKTDTGVSLQTYDDLLAKDCHCI |
| > 900 pM | 32.9 pM | MLC097 (ligand) EGTFTSDVSSYLEEQAAKEFIAWLVRGGGGQEPGAQPGQEPGAQPGQEPGAQPGQEPGAQPGQEPGAQPGQEPGAQPGAQPGAQPGAQPGAQPGAQPGAQPGAQPGAQPARQGDHCPLGPGRCCRLHTVRASLEDLGWADWVLSPREVQVTMCIGACPSQFRAANLHAQIKTSLHRLKPDTVPAPCCVPASYNPMVLIQKTDTGVSLQTYDDLLAKDCHCI |
| 1.8 pM | 39 pM | MLC043 (ligand, Moiety A (HOOC-(CH2)16-CO-gGlu-2XADO) on 26K of GLP-1 (20K of fusion polypeptide)) HGEGTFTSDVSSYLEEQAAKEFIAWLVRGGGGQEPGAQPGQEPGAQPGQEPGAQPGQEPGAQPGQEPGAQPGQEPGAQPGAQPGAQPGAQPARQGDHCPLGPGRCCRLHTVRASLEDLGWADWVLSPREVQVTMCIGACPSQFRAANLHAQIKTSLHRLRPDTVPAPCCVPASYNPMVLIQRTDTGVSLQTYDDLLARDCHCI |
| 2.5 pM | 27.5 pM | MLC124 (ligand) HGEGTFTSDVSSYLEEQAAKEFIAWLVRGGGGQEPGAQPGQEPGAQPGQEPGAQPGQEPGAQPGQEPGAQPGQEPGAQPGAQPGAQPGAQPARQGDHCPLGPGRCCRLHTVRASLEDLGWADWVLSPREVQVTMCIGACPSQFRAANLHAQIKTSLHRLRPDTVPAPCCVPASYNPMVLIQRTDTGVSLQTYDDLLARDCHCI |
|  | 45.4 pM | MLC027 (ligand, Moiety A (HOOC-(CH2)16-CO-gGlu-2XADO) on 55K of Linker (86K of fusion polypeptide)) HGEGTFTSDVSSYLEEQAAREFIAWLVRGGGGAQPGAQPGAQPGAQPGAQPGAQPGAQPGAQPGQEPGAQPGQEPGAQPGQEPGQKPGQEPGQEPGQEPGQEPGAQPGAQPARQGDHCPLGPGRCCRLHTVRASLEDLGWADWVLSPREVQVTMCIGACPSQFRAANLHAQIKTSLHRLRPDTVPAPCCVPASYNPMVLIQRTDTGVSLQTYDDLLARDCHCI |
